Laboratory results reported in paper PMC7227486.

Experiments:
[1] = target: CHIKV virus-like particles (strain 37997), produced from C-E3-E2-6K-E1 (chikungunya virus strain 37997); experiment: SPR
[2] = target: CHIKV virus-like particles (strain 37997), produced from C-E3-E2-6K-E1 (chikungunya virus strain 37997); experiment: cryo-EM structure
[3] = target: infectious CHIKV particles (strain 181/25) (chikungunya virus strain 181/25); experiment: cryo-EM structure

Row | Substance | KD, high affinity site (kinetically derived, two-site model) [1] [nM] | KD, lower affinity sites (kinetically derived, two-site model) [1] [nM] | stoichiometry N (Mxra8 molecules per virion) [2] | stoichiometry N (Mxra8 proteins per particle) [3]
1 | recombinant murine Mxra8 (soluble; preparation not stated for this experiment) (from UniProt Q9DBV4 20-340) (domain or fragment) | 84 | 270 | – | –
2 | mammalian cell-generated murine Mxra8 (residues 23-336), cleaved from Mxra8-HRV-Fc (from UniProt Q9DBV4 23-336) (domain or fragment) | – | – | 240 | 60
